Experimental data as given in patent publication US20040037843A1.
Like-named read-outs stand apart in the source and are kept apart here.

Key:
[1] = target: HLA-A*2401 (purified HLA class I molecule) (human)
HLA-A*2401 (human) [2] = target: HLA-A*2401 (human)
HLA-A*0202 (human) [3] = assay: inhibition of 125I probe peptide binding to purified HLA, gel filtration; conditions: remark: other sources report otherwise
[4] = target: HLA-A*2401 (purified HLA class I molecule) (human); assay: competition with 125I-labelled standard peptide for purified HLA, gel filtration
HLA-A*2401 (human) [5] = assay: competition with 125I-labelled probe peptide for purified HLA, gel filtration
HLA-A*0202 (human) [6] = conditions: remark: other sources report otherwise
HLA-A*0203 (human) [7] = conditions: remark: other sources report otherwise
HLA-A*0201 (human) [8] = conditions: remark: other sources report otherwise
HLA-A*6802 (human) [9] = conditions: remark: other sources report otherwise
HLA-A*0206 (human) [10] = conditions: remark: other sources report otherwise
HLA-A*0201 (human) [11] = assay: inhibition of 125I probe peptide binding to purified HLA, gel filtration; conditions: remark: other sources report otherwise
HLA-A*0206 (human) [12] = assay: as above; conditions: remark: other sources report otherwise
HLA-A*0202 (human) [13] = assay: competition with 125I probe peptide on purified HLA, gel filtration; conditions: remark: other sources report otherwise
HLA-A*0203 (human) [14] = assay: inhibition of 125I probe peptide binding to purified HLA; conditions: remark: other sources report otherwise
HLA-A*6802 (human) [15] = assay: as above; conditions: remark: other sources report otherwise
HLA-A*0201 (human) [16] = assay: competition with 125I-labelled standard peptide for purified HLA, gel filtration; conditions: remark: other sources report otherwise
HLA-A*0202 (human) [17] = assay: as above; conditions: remark: other sources report otherwise
HLA-A*0203 (human) [18] = assay: as above; conditions: remark: other sources report otherwise
HLA-A*0206 (human) [19] = assay: as above; conditions: remark: other sources report otherwise
HLA-A*0203 (human) [20] = assay: competition with 125I probe peptide on purified HLA, gel filtration; conditions: remark: other sources report otherwise
HLA-A*0201 (human) [21] = assay: as above; conditions: remark: other sources report otherwise
HLA-A*2401 (human) [22] = target: HLA-A*2401 (human); remark: listed apart in the source

GFLFLLFFW [PAP (prostatic acid phosphatase) peptide, position 17, 9 amino acids]
relative binding ratio (IC50 of standard peptide / IC50 of test peptide) [1]: 0.0016

RYRKFLNESY [PAP peptide, position 88, 10 amino acids (A24 supermotif)]
relative binding ratio (IC50 of standard peptide / IC50 of test peptide) (HLA-A*2401 (human) [2]): 0.0057

FLTLSVTWV [Peptide 60.0216 (PSA.3.V9)]
IC50 (HLA-A*0202 (human) [3]): 8.4 nM

LFPPEGVSIW [PAP position 123, 10 amino acids]
relative binding ratio (IC50 of standard peptide / IC50 of test peptide) [4]: 0.014 | relative binding ratio (IC50 of standard peptide / IC50 of test peptide) (HLA-A*2401 (human) [5]): 0.014

SLHLLSNDMCV [peptide 1418.66 (HuK2.175.V11)]
IC50 (HLA-A*0202 (human) [6]): 0.8 nM | IC50 (HLA-A*0203 (human) [7]): 10 nM | IC50 (HLA-A*0201 (human) [8]): 8.6 nM | IC50 (HLA-A*6802 (human) [9]): 2160 nM | IC50 (HLA-A*0206 (human) [10]): 2310 nM

SWPQGFGQL [PAP peptide, position 62, 9 amino acids (A24 supermotif)]
relative binding ratio (IC50 of standard peptide / IC50 of test peptide) (HLA-A*2401 (human) [2]): 0.0013

VVFLTLSVTWI [Peptide 1419.25 (PSA.1)]
IC50 (HLA-A*0202 (human) [3]): 159 nM | IC50 (HLA-A*0201 (human) [11]): 385 nM | IC50 (HLA-A*0206 (human) [12]): 2850 nM

ALFPPEGVSV [Peptide 1419.61 … (PAP.122.V10)]
IC50 (HLA-A*0202 (human) [13]): 1 nM

GLHGQDLFGI [Peptide 1166.11 … (PAP.196)]
IC50 (HLA-A*0202 (human) [13]): 0.9 nM

LMLLRLSEPA [peptide 63.0014 (HuK2.121)]
IC50 (HLA-A*0201 (human) [8]): 200 nM | IC50 (HLA-A*6802 (human) [9]): 5000 nM

GFLFLLFFWL [PAP (prostatic acid phosphatase) peptide, position 17, 10 amino acids]
relative binding ratio (IC50 of standard peptide / IC50 of test peptide) [1]: 0.0007

SLLAKELKFV [Peptide 63.0033 … (PAP.29.L2)]
IC50 (HLA-A*0203 (human) [14]): 3.8 nM | IC50 (HLA-A*6802 (human) [15]): 6.67 µM

KVTKFMLCV [Peptide 60.0220 (PSA.187.V9)]
IC50 (HLA-A*0202 (human) [3]): 518 nM | IC50 (HLA-A*0201 (human) [11]): 69 nM | IC50 (HLA-A*0206 (human) [12]): 128 nM

EYIRKRYRKF [PAP (prostatic acid phosphatase) peptide, position 83, 10 amino acids]
relative binding ratio (IC50 of standard peptide / IC50 of test peptide) [1]: 0.0067

VISNDVCAQV [PSA position 174, 10 amino acids]
relative binding ratio (IC50 of standard peptide / IC50 of test peptide) (HLA-A*0201 (human) [16]): 0.0008

IALSVGCTGAV [Kallikrein position 8, 11 amino acids]
relative binding ratio (HLA-A*0202 (human) [17]): 0.0032 | relative binding ratio (HLA-A*0203 (human) [18]): 0.027 | relative binding ratio (HLA-A*0201 (human) [16]): 0.0009 | relative binding ratio (HLA-A*0206 (human) [19]): 0.01

GVSIWNPIV [Peptide 60.0207 … (PAP.128.V9)]
IC50 (HLA-A*0202 (human) [13]): 269 nM | IC50 (HLA-A*0203 (human) [20]): 909 nM | IC50 (HLA-A*0201 (human) [21]): 455 nM

SVGCTGAVPV [peptide 1418.35 (HuK2.11.V10)]
IC50 (HLA-A*0203 (human) [7]): 154 nM | IC50 (HLA-A*0201 (human) [8]): 104 nM | IC50 (HLA-A*0206 (human) [10]): 552 nM

HLLSNDMCARV [peptide 1418.67 (HuK2.177.V11)]
IC50 (HLA-A*0202 (human) [6]): 1.3 nM | IC50 (HLA-A*0203 (human) [7]): 5.3 nM | IC50 (HLA-A*6802 (human) [9]): 860 nM | IC50 (HLA-A*0206 (human) [10]): 37 nM

IWSKVYDPL [PAP position 205, 9 amino acids (…)]
relative binding ratio (IC50 of standard peptide / IC50 of test peptide) (HLA-A*2401 (human) [22]): 0.0024

PTQEPALGTT [Kallikrein position 142, 10 amino acids]
relative binding ratio (IC50 of standard peptide / IC50 of test peptide) (HLA-A*0202 (human) [17]): 0.022 | relative binding ratio (IC50 of standard peptide / IC50 of test peptide) (HLA-A*0203 (human) [18]): 0.052 | relative binding ratio (IC50 of standard peptide / IC50 of test peptide) (HLA-A*0201 (human) [16]): 0.0084 | relative binding ratio (IC50 of standard peptide / IC50 of test peptide) (HLA-A*0206 (human) [19]): 0.0037
